One assay concerns the target HLA-A*02:01 (Homo sapiens, UniProt P04439, D140Y/D185E/D98H/E176V/E277Q/G131W/G231S/I119V/I121R/I166T/I218V/L300P/L318F/N151K/N90K/P208A/P217A/Q86G/Q94H/R138H/R169H/T345S). The assay is described as follows: MHC binding assay: UV-ligand exchange with β2m ELISA (peptide exchange yield). The note with it: MHC class I binding score; binding to HLA-A*02:01 ranged by peptide exchange yield (UV-ligand exchange, β2m ELISA). The method, boiled down:
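Peptide–MHC complexes formed by UV-ligand exchange, cleaving a UV-sensitive peptide so the test peptide can bind. Exchange yield measured by ELISA: complexes captured on streptavidin-coated wells, diluted 100-fold, detected with HRP anti-β2m (1 h, 37 °C) and TMB at 450 nm, against refolded HLA-A*02:01/MLA-001 standards (15-500 ng/ml).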
(ELISA stands for enzyme-linked immunosorbent assay.)

A further assay deals with CD8+ T cells. The assay is described as follows: In vitro immunogenicity: T-cell priming with aAPCs loaded with peptide/MHC and anti-CD28, pMHC multimer readout. The note with it: HLA-A*02 restricted peptides; CD8+ T cells of healthy donors; three stimulation cycles. The assay is classed as cell-based, human. Here is the method:
In an aspect, the peptides are pre-screened for immunogenicity before being included in the warehouse. By way of example, and not limitation, the immunogenicity of the peptides included in the warehouse is determined by a method comprising in vitro T-cell priming through repeated stimulations of CD8+ T cells from healthy donors with artificial antigen presenting cells loaded with peptide/MHC complexes and anti-CD28 antibody.
CD8+ T cells were primed using artificial APCs coated with anti-CD28 mAb and HLA-A*02 in complex with SeqID No 1 peptide (FIG. 3C, left panel), SeqID No 5 peptide (FIG. 3D left panel), SeqID No 32 peptide (FIG. 3E, left panel) and SeqID No 220 peptide (FIG. 3F, left panel), respectively. After three cycles of stimulation, the detection of peptide-reactive cells was performed by 2D multimer staining with A*02/SeqID No 1 (FIG. 3C), A*02/SeqID No 5 (FIG. 3D), A*02/SeqID No 32 (FIG. 3E) or A*02/SeqID No 220 (FIG. 3F). Right panels (FIGS. 3C, 3D, 3E and 3F) show control staining of cells stimulated with irrelevant A*02/peptide complexes. Viable singlet cells were gated for CD8+ lymphocytes. Boolean gates helped excluding false-positive events detected with multimers specific for different peptides.
In order to obtain information regarding the immunogenicity of the TUMAPs of the present invention, the inventors performed investigations using an in vitro T-cell priming assay based on repeated stimulations of CD8+ T cells with artificial antigen presenting cells (aAPCs) loaded with peptide/MHC complexes and anti-CD28 antibody.
In order to perform in vitro stimulations by artificial antigen presenting cells loaded with peptide-MHC complex (pMHC) and anti-CD28 antibody, the inventors first isolated CD8+ T cells from fresh HLA-A*02 leukapheresis products via positive selection using CD8 microbeads (Miltenyi Biotec, Bergisch-Gladbach, Germany) of healthy donors obtained from the University clinics Mannheim, Germany, after informed consent.
PBMCs and isolated CD8+ lymphocytes were incubated in T-cell medium (TCM) until use consisting of RPMI-Glutamax (Invitrogen, Karlsruhe, Germany) supplemented with 10% heat inactivated human AB serum (PAN-Biotech, Aidenbach, Germany), 100 U/ml Penicillin/100 μg/ml Streptomycin (Cambrex, Cologne, Germany), 1 mM sodium pyruvate (CC Pro, Oberdorla, Germany), 20 μg/ml Gentamycin (Cambrex). 2.5 ng/ml IL-7 (PromoCell, Heidelberg, Germany) and 10 U/ml IL-2 (Novartis Pharma, Nirnberg, Germany) were also added to the TCM at this step.
Generation of pMHC/anti-CD28 coated beads, T-cell stimulations and readout was performed in a highly defined in vitro system using four different pMHC molecules per stimulation condition and 8 different pMHC molecules per readout condition.
The purified co-stimulatory mouse IgG2a anti human CD28 Ab 9.3 (Jung et al., 1987) was chemically biotinylated using Sulfo-N-hydroxysuccinimidobiotin as recommended by the manufacturer (Perbio, Bonn, Germany). Beads used were 5.6 μm diameter streptavidin coated polystyrene particles (Bangs Laboratories, Illinois, USA).
800.000 beads/200 μl were coated in 96-well plates in the presence of 4×12.5 ng different biotin-pMHC, washed and 600 ng biotin anti-CD28 were added subsequently in a volume of 200 μl. Stimulations were initiated in 96-well plates by co-incubating 1×10^6 CD8+ T cells with 2×10^5 washed coated beads in 200 μl TCM supplemented with 5 ng/ml IL-12 (PromoCell) for 3 days at 37° C. Half of the medium was then exchanged by fresh TCM supplemented with 80 U/ml IL-2 and incubating was continued for 4 days at 37° C. This stimulation cycle was performed for a total of three times. For the pMHC multimer readout using 8 different pMHC molecules per condition, a two-dimensional combinatorial coding approach was used as previously described (Andersen et al., 2012) with minor modifications encompassing coupling to 5 different fluorochromes.

Consider “332 (VMIQHVENL; listed as Homo sapiens) [compound 332]”, for which the “Peptide Exchange” value with HLA-A*02:01 is on record as “″+++″ (≥50 = +++)”. Besides, in the assay with CD8+ T cells, the “Wells positive [%]” value was “″+″ (<20% = +)”.

Take “380 (YLDRKLLTL; listed as Homo sapiens) [compound 380]”: the “Peptide Exchange” value with HLA-A*02:01 was “″+++″ (≥50 = +++)”. The “Wells positive [%]” value in the assay with CD8+ T cells is on record as “″++++″ (> = 70% = ++++)”.
